The numbers were not newly measured in paper PMC7083049, which cites them from elsewhere.

For this series, the target named is histone H4 (Homo sapiens) (UniProt P62805).

“JMJD2A Tudor domains (from UniProt O75164)”: the Kd (in general, the constant that tells how readily two partners part at equilibrium) was 2 µM.
